Assay [1] deals with T1, canine IL4 (Sino Biological Inc, Cat #70021-DNAE-5) (canine, UniProt O77762 25-132).
T1 sequence (looked up): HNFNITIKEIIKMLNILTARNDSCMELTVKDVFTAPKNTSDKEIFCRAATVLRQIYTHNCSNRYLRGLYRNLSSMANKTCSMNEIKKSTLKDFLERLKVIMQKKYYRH
Put plainly: cell-based or functional assay.

In assay [2] the target is T2, canine IL13 with C-terminal poly-His tag (canine, UniProt Q9N0W9 19-131).
T2 construct: Expressed in 293 cells and purified from the supernatant
T2 sequence: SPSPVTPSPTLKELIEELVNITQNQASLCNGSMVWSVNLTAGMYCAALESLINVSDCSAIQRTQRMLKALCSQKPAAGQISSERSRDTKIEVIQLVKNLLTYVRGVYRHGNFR
Put plainly: BLI (Octet), summary sentence of Example 4.

B1: canine IL4R-IL13R-IgGB (Fc fusion)
chain: SGSVKVLHEPSCFSDYISTSVCQWKMDHPTNCSAELRLSYQLDFMGSENHTCVPENREDSVCVCSMPIDDAVEADVYQLDLWAGQQLLWSGSFQPSKHVKPRTPGNLTVHPNISHTWLLMWTNPYPTENHLHSELTYMVNVSNDNDPEDFKVYNVTYMGPTLRLAASTLKSGASYSARVRAWAQTYNSTWSDWSPSTTWLNYYEPGGGSGTETQPPVTNLSVSVENLCTVIWTWDPPEGASPNCTLRYFSHFDNKQDKKIAPETHRSKEVPLNERICLQVGSQCSTNESDNPSILVEKCTPPPEGDPESAVTELQCVWHNLSYMKCTWLPGRNTSPDTNYTLYYWHSSLGKILQCEDIYREGQHIGCSFALTNLKDSSFEQHSVQIVVKDNAGKIRPSFNIVPLTSHVKPDPPHIKRLFFQNGNLYVQWKNPQNFYSRCLSYQVEVNNSQTETNDIFYVEEAKCQNSEFEGNLEGTICFMVPGVLPDTLNTVRIRVRTNKLCYEDDKLWSNWSQAMSIGENTDPTPKRENGRVPRPPDCPKCPAPEMLGGPSVFIFPPKPKDTLLIARTPEVTCVVVDLDPEDPEVQISWFVDGKQMQTAKTQPREEQFNGTYRVVSVLPIGHQDWLKGKQFTCKVNNKALPSPIERTISKARGQAHQPSVYVLPPSREELSKNTVSLTCLIKDFFPPDIDVEWQSNGQQEPESKYRTTPPQLDEDGSYFLYSKLSVDKSRWQRGDTFICAVMHEALHNHYTQESLSHSPGK
notes: also called canine IL4R-IL13R-Fc; Canine IL4R-IL13R-Fc (SINK)
With B1, in assay [1], the “TF1 cell proliferation assay (CellTiter-Glo luminescence), IC50 by 4 parameter logistic fit” value worked out at 2 nM. The binding result in assay [2] is “binds”.

B2: canine IL13R-IL4R-IgGB (Fc fusion)
chain: TETQPPVTNLSVSVENLCTVIWTWDPPEGASPNCTLRYFSHFDNKQDKKIAPETHRSKEVPLNERICLQVGSQCSTNESDNPSILVEKCTPPPEGDPESAVTELQCVWHNLSYMKCTWLPGRNTSPDTNYTLYYWHSSLGKILQCEDIYREGQHIGCSFALTNLKDSSFEQHSVQIVVKDNAGKIRPSFNIVPLTSHVKPDPPHIKRLFFQNGNLYVQWKNPQNFYSRCLSYQVEVNNSQTETNDIFYVEEAKCQNSEFEGNLEGTICFMVPGVLPDTLNTVRIRVRTNKLCYEDDKLWSNWSQAMSIGENTDPTGGGSGSGSVKVLHEPSCFSDYISTSVCQWKMDHPTNCSAELRLSYQLDFMGSENHTCVPENREDSVCVCSMPIDDAVEADVYQLDLWAGQQLLWSGSFQPSKHVKPRTPGNLTVHPNISHTWLLMWTNPYPTENHLHSELTYMVNVSNDNDPEDFKVYNVTYMGPTLRLAASTLKSGASYSARVRAWAQTYNSTWSDWSPSTTWLNYYEPKRENGRVPRPPDCPKCPAPEMLGGPSVFIFPPKPKDTLLIARTPEVTCVVVDLDPEDPEVQISWFVDGKQMQTAKTQPREEQFNGTYRVVSVLPIGHQDWLKGKQFTCKVNNKALPSPIERTISKARGQAHQPSVYVLPPSREELSKNTVSLTCLIKDFFPPDIDVEWQSNGQQEPESKYRTTPPQLDEDGSYFLYSKLSVDKSRWQRGDTFICAVMHEALHNHYTQESLSHSPGK
notes: also called Canis lupus IL13R-IL4R-Fc; canine IL13R-IL4R-Fc
Take B2: the binding result in assay [2] is listed as “binds”.
